Test results: PMC12931234, “Allosteric Modulation of Pathological Ataxin‐3 Aggregation: A Path to Spinocerebellar Ataxia Type‐3 Therapies” (Advanced Science, 2025)

Biological target: the molecule itself
Assay: thioflavin T fluorescence aggregation assay; 5 µM protein (monomer peak from Superose 12), 30 µM ThT, 37 °C, 20 mM HEPES pH 7.5, 150 mM NaCl, 1 mM DTT; without or with CLR01 or CLR03; amyloid self-assembly

B1: Truncated ataxin-3 variant comprising the N-terminal globular Josephin domain (Atx3 JD) (domain or fragment, human, UniProt P54252-2 1-180, looked up)
chain: MESIFHEKQEGSLCAQHCLNNLLQGEYFSPVELSSIAHQLDEEERMRMAEGGVTSEDYRTFLQQPSGNMDDSGFFSIQVISNALKVWGLELILFNSPEYQRLRIDPINERSFICNYKEHWFTVRKLGKQWFNLNSLLTGPELISDTYLALFLAQLQQEGYSIFVVKGDLPDCEADQLLQM
notes: Ataxin-3 (Atx3), human, UniProt P54252-2, N-terminal globular Josephin domain; printed MW 23 767.87 Da; The text names residues up to R182; NMR models of JD: PDB 1YZB and 2AGA (cited); also called isolated JD; not shown: His6, N-terminal, kept
**Q.** Does B1 bind?
**A.** Result: binds
